Measured values from patent US20210324063A1.

Biological target: recombinant human VEGF-165 (R&D Systems) (human) (UniProt P15692)
Sequence (P15692 other isoform, or with tags, fused parts or gaps limits assumed): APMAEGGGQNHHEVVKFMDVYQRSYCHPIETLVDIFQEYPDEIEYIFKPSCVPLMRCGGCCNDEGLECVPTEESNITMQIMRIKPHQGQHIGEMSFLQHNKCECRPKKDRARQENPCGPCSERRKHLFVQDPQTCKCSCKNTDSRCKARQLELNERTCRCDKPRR

IC50, inhibition of VEGF-stimulated HuRMVEC proliferation (WST-1, OD450): 0.683 nM
Substance: Eylea (aflibercept) (Fc fusion)
